From patent US20100029554A1, “Composition and Methods for Treatment of Congestive Heart Failure” (Amylin Pharmaceuticals, Inc., priority 2006, published 2010)
Where no end group is shown, it is not given here. [ ]: non-standard residue; d: D form. Gly(octyl) = CCCCCCCC[C@H](N)C(=O)O

B1: Cmpd 5268 (peptide)
peptide: HGEGTFTSDLSKQAEEEAVRLFIEWLKNGKPKK[Gly(octyl)]RYS-OH
modifications: N-terminus assumed
SMILES: CCCCCCCC[C@H](NC(=O)[C@H](CCCCN)NC(=O)[C@H](CCCCN)NC(=O)[C@@H]1CCCN1C(=O)[C@H](CCCCN)NC(=O)CNC(=O)[C@H](CC(N)=O)NC(=O)[C@H](CCCCN)NC(=O)[C@H](CC(C)C)NC(=O)[C@H](Cc1c[nH]c2ccccc12)NC(=O)[C@H](CCC(=O)O)NC(=O)[C@@H](NC(=O)[C@H](Cc1ccccc1)NC(=O)[C@H](CC(C)C)NC(=O)[C@H](CCCNC(=N)N)NC(=O)[C@@H](NC(=O)[C@H](C)NC(=O)[C@H](CCC(=O)O)NC(=O)[C@H](CCC(=O)O)NC(=O)[C@H](CCC(=O)O)NC(=O)[C@H](C)NC(=O)[C@H](CCC(N)=O)NC(=O)[C@H](CCCCN)NC(=O)[C@H](CO)NC(=O)[C@H](CC(C)C)NC(=O)[C@H](CC(=O)O)NC(=O)[C@H](CO)NC(=O)[C@@H](NC(=O)[C@H](Cc1ccccc1)NC(=O)[C@@H](NC(=O)CNC(=O)[C@H](CCC(=O)O)NC(=O)CNC(=O)[C@@H](N)Cc1c[nH]cn1)[C@@H](C)O)[C@@H](C)O)C(C)C)[C@@H](C)CC)C(=O)N[C@@H](CCCNC(=N)N)C(=O)N[C@@H](Cc1ccc(O)cc1)C(=O)N[C@@H](CO)C(=O)O
notes: tested as C-terminal acid (-OH)
B2: Cmpd 5269 (peptide)
peptide: HGEGTFTSDLSKQLEEEAVRLFIEFLKNGKPKK[Gly(octyl)]RYS-OH
modifications: N-terminus assumed
SMILES: CCCCCCCC[C@H](NC(=O)[C@H](CCCCN)NC(=O)[C@H](CCCCN)NC(=O)[C@@H]1CCCN1C(=O)[C@H](CCCCN)NC(=O)CNC(=O)[C@H](CC(N)=O)NC(=O)[C@H](CCCCN)NC(=O)[C@H](CC(C)C)NC(=O)[C@H](Cc1ccccc1)NC(=O)[C@H](CCC(=O)O)NC(=O)[C@@H](NC(=O)[C@H](Cc1ccccc1)NC(=O)[C@H](CC(C)C)NC(=O)[C@H](CCCNC(=N)N)NC(=O)[C@@H](NC(=O)[C@H](C)NC(=O)[C@H](CCC(=O)O)NC(=O)[C@H](CCC(=O)O)NC(=O)[C@H](CCC(=O)O)NC(=O)[C@H](CC(C)C)NC(=O)[C@H](CCC(N)=O)NC(=O)[C@H](CCCCN)NC(=O)[C@H](CO)NC(=O)[C@H](CC(C)C)NC(=O)[C@H](CC(=O)O)NC(=O)[C@H](CO)NC(=O)[C@@H](NC(=O)[C@H](Cc1ccccc1)NC(=O)[C@@H](NC(=O)CNC(=O)[C@H](CCC(=O)O)NC(=O)CNC(=O)[C@@H](N)Cc1c[nH]cn1)[C@@H](C)O)[C@@H](C)O)C(C)C)[C@@H](C)CC)C(=O)N[C@@H](CCCNC(=N)N)C(=O)N[C@@H](Cc1ccc(O)cc1)C(=O)N[C@@H](CO)C(=O)O
notes: as for B1

Assays:
NH/Swiss mice = assay: Glucose lowering assay; assay type: in vivo, mouse; settings: IP, 2 nmol/kg, change in blood glucose relative to vehicle
Protocol: Female NH/Swiss mice (˜8-20 weeks of age), (Harlan, Indianapolis, Ind., USA), housed 3 mice per cage, are allowed ad libitum access to food and water until the start of the experiment. At two hours prior to treatment, access to food is restricted.
At the time of treatment, the tip of the tail is pricked with a needle to obtain 1 μl blood as a “pre-treatment” control blood sample. Immediately thereafter, each mouse is injected intraperitoneally (IP) with a test sample (1 nmol/kg or 2 nmol/kg) or 200 μl vehicle (10% DMSO saline). Additional blood samples are collected at 30, 60, 120, 180, and 240 minutes after injection.
Blood glucose is measured with a glucose oxidase biosensor (OneTouch® Ultra® (LifeScan, Inc., a Johnson & Johnson Company, Milpitas, Calif.)). At each time point, the effect of the test sample is expressed as the percent change in blood glucose relative to mice injected with vehicle only. Test samples and vehicle controls are also compared to their respective “pre-treatment” controls.
Significant test sample effects are identified by ANOVA (p<0.05). Where a significant difference existed, test means are compared to the control mean with Dunnett's post test using GraphPad Prism version 4.00 for Windows, GraphPad Software, San Diego Calif. USA, www.graphpad.com).

NIH:Swiss mice = assay: Food intake assay; assay type: in vivo, mouse; settings: IP, dose 10 nmol/kg
Protocol: All mice (NIH:Swiss mice) are housed in a stable environment of 22 (±2)° C., 60 (±10)% humidity and a 12:12 light:dark cycle; with lights on at 0300. Mice are housed in groups of three in standard cages with ad libitum access to food (Teklad: LM 485; Madison, Wis.) and water except as noted, for at least two weeks before the experiments.
All experiments are conducted between the hours of 0700 and 0900. The mice are food deprived (food removed at 1530 hr from all animals on day prior to experiment). […] The food pellet is weighed at 30-minute, 1-hr, and 2-hr intervals to determine the amount of food eaten.
Significant test sample effects are identified by ANOVA (p<0.05). Where a significicant difference exists, test means are compared to the control mean using Dunnett's test. One-way ANOVA with Dunnett's post test is performed using GraphPad Prism version 3.01 for Windows, GraphPad Software, San Diego Calif.

[1] = target: T1, GLP-1 receptor, endogenous in RINm5f cells (rat (RIN-m5F are called rat pancreas …, UniProt P32301 22-463)); assay: 125I-GLP-1 displacement, RINm5f membranes
T1 construct: whole, on cells; also called GLP-1 receptors; GLP (RIN)
T1 sequence (looked up): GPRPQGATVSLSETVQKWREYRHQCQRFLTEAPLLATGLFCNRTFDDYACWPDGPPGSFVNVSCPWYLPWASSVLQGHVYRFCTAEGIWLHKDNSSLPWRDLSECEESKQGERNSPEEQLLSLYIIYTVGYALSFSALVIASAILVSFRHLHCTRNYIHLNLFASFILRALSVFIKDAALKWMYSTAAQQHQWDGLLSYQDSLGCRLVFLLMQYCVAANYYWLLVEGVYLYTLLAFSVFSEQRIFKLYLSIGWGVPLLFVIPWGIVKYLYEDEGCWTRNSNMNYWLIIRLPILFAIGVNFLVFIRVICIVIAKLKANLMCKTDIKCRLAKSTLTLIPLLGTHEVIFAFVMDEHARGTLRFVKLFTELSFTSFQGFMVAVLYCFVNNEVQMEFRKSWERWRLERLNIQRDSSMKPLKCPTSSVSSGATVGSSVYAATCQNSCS

[2] = target: T1, GLP-1 receptor, endogenous in RINm5f …; assay: cell-based or functional assay
[3] = target: T2, GLP-1 receptor, endogenous in RINm5f cells (rat (RIN-m5F are called rat pancreas insulinoma cells)), P32301; assay: 125I-GLP-1 displacement, RINm5f membranes
T2 chain: T1 sequence (looked up)

[4] = target: T2, GLP-1 receptor, endogenous in RINm5f …; assay: cell-based or functional assay

Row | Molecule | IC50 [1] [nM] | cAMP, CYCLASE GLP/GIP/CT (RIN) EC50 [2] [nM] | cAMP, CYCLASE GLP/GIP/CT (RIN) EC50 [4] [nM] | further results
1 | CC[C@H](C)[C@H](NC(=O)[C@H](CC(C)C)NC(=O)[C@H](Cc1c[nH]c2ccccc12)NC(=O)[C@H](CCC(=O)O)NC(=O)[C@@H](NC(=O)[C@H](Cc1ccccc1)NC(=O)[C@H](CC(C)C)NC(=O)[C@H](CCCNC(=N)N)NC(=O)[C@@H](NC(=O)[C@H](C)NC(=O)[C@H](CCCCN)NC(=O)[C@H](CCC(=O)O)NC(=O)[C@H](CCC(=O)O)NC(=O)[C@H](CC(C)C)NC(=O)[C@H](CCC(N)=O)NC(=O)[C@H](CCCCN)NC(=O)[C@H](CO)NC(=O)[C@H](CC(C)C)NC(=O)[C@H](CC(=O)O)NC(=O)[C@H](CO)NC(=O)[C@@H](NC(=O)[C@H](Cc1ccccc1)NC(=O)[C@@H](NC(=O)CNC(=O)[C@H](CCC(=O)O)NC(=O)CNC(=O)[C@@H](N)Cc1c[nH]cn1)[C@@H](C)O)[C@@H](C)O)C(C)C)[C@@H](C)CC)C(=O)N[C@@H](CCC(N)=O)C(=O)NCC(=O)NCC(=O)N1CCC[C@H]1C(=O)N[C@@H](CO)C(=O)N[C@@H](CCCCN)C(=O)N[C@@H](CCC(=O)O)C(=O)N[C@H](C(=O)N[C@H](C(=O)N[C@@H](CO)C(=O)O)[C@@H](C)CC)[C@@H](C)CC [Cmpd 5103] |  |  |  | GLU LOWERING AUC240 @2 nmol/kg (NH/Swiss mice): −17%; FOOD INTAKE at 60 min (NIH:Swiss mice): −42%
2 | HGEGTYTNDVSSYLEGQAARLFIEWLQGGPSSGAPPPS-NH2 (also: table prints an unexplained underscore after L26) [Cmpd 5183] | 0.31 | 0.21 |  | 
3 | HAEGTFTSDVSSYLEGQAAKEFIAWLVKGRPSGGGIPI (modifications not checked) [Cmpd 4888] |  |  | 0.17 | IC50 [3]: 0.13 nM
4 | HAEGTFTSDVSSYLEGQAAKEFIAWLVKGRGGGGIPI (modifications not checked) [Cmpd 4887] |  |  | 0.22 | IC50 [3]: 0.17 nM
5 | HGEGTFTSDVTQQLEEEAVRLFIEWLKQGGPSSGAPPPS-NH2 [Cmpd 5099] | 5 | 1.29 |  | 
6 | HAEGTFTSDVSSYLEGQAAKEFIAWLVKGRGGG (not fully specified; modifications not checked) [Cmpd 4844, GLP-1-(7-37)-GG(S)-2,6-diamino-1-(thiazolidin-3-y1)hexan-1-one amide] |  |  | 0.13 | 
7 | HAEGTFTSDVSSYLEGQAAKEFIAWLVKGRGGG (not fully specified; modifications not checked) [Cmpd 4845, GLP-1-(7-37)-GG-(S)-2,6-diamino-1-(thiazolidin-2-cyano-3-y1)hexan-1-one amide] |  |  | 0.4 | 
8 | HAEGTFTSDVSSYLEGQAAKEFIAWLVKGRGGGIPI (modifications not checked) [Cmpd 4957] |  |  | 0.51 | IC50 [3]: 0.1 nM
9 | B1 | 0.11 | 0.489 |  | 
10 | B2 | 0.088 | 1.31 |  | 
11 | HGEGTFTSDLSKQLEEEAVRLFIEWLKNPGGKEIIS (tested as C-terminal acid (-OH)) [Cmpd 5296] | 4 | 0.145 |  | 
